Data as given in PMC4514642, “^99mTc-3P-RGD2 molecular imaging targeting integrin αvβ3 in head and neck squamous cancer xenograft” (Journal of Radioanalytical and Nuclear Chemistry, 2015).

Experiments:
[1] = In vitro stability in serum by radio-HPLC; type: in vitro ADME; settings: fetal calf serum (result text); newborn calf serum / 2 mL human serum in method; 37 MBq, 37 °C, incubation 6 h (analysed at 0 min, 3, 4, 6 h); radio-HPLC radiochemical purity
Description: The stability of ^99mTc-3P-RGD2 in newborn calf serum was determined after incubating the radiolabeled compound (37 MBq) in 2 mL […] at 37 °C. Every 20 μL mixture was injected directly into the radio-HPLC to analyze the radiochemistry purity, which was followed by radiolabeling efficiency analysis at 0 min, 3, 4, and 6 h.
Fig. 2 Radio-HPLC analysis of ^99mTc-3P-RGD2 stability. ^99mTc-3P-RGD2 incubated in new-born calf serum for 0 min (a), 3 h (b), 4 h (c), 6 h (d) after labeling

[2] = Biodistribution in CNE-1 tumor bearing mice; type: in vivo; settings: female, BALB/c nude, mouse, iv, total radioactivity, CNE-1 model, mean ± SD
Description: (§1) Female BALB/c nude mice (4–5 weeks of age, 15–20 g of weight) were purchased from the Department of Animal Experiment, Chinese Academy of Medical Sciences. The mice were subcutaneously implanted with 3 × 10^6 the HEP-2 cells (6 mice) or 2 × 10^5 the CNE-1 cells (6 mice) in 0.1 mL of saline into the right upper shoulder flanks. All procedures were performed in a laminar flow cabinet using the aseptic technique. Fifteen to nineteen days after inoculation, the tumor size was 1–1.5 cm, the tumor-bearing mice were used for biodistribution and imaging studies. Capital Medical University Animal Care and Use Committee approved the animal experiments.
(§2) The biodistribution of ^99mTc-3P-RGD2 in HEP-2 tumor bearing mice and CNE-1 tumor bearing mice was evaluated in groups of 3 mice per time point at 60 min and 120 min after injection of approximately 0.55–0.74 MBq of ^99mTc-3P-RGD2 in 0.1 mL saline via tail vein. From all mice, tumors and tissue samples (blood, heart, liver, spleen, kidney, lung, intestine and muscle) were harvested and weighed. Subsequently, radioactivity uptake was determined in γ-counter. Activity concentrations in the tissues were calculated as percentage of the injected dose per gram of tissue (%ID/g). To correct for radioactive decay, injection standards were counted simultaneously.

HEP-2 tumor = assay: Biodistribution in HEP-2 tumor bearing mice; type: in vivo, BALB/c nude mice; settings: stated for HEP-2 and CNE-1 tumor models together
Description: as §1, §2

[3] = Biodistribution in HEP-2 tumor bearing mice; type: in vivo, BALB/c nude mice; settings: female, BALB/c nude, mouse, iv, total radioactivity, HEP-2 model, mean ± SD
Description: as §1, §2

With `N=C(N)NCCC[C@@H]1NC(=O)[C@H](CCCCNC(=O)CCOCCOCCOCCOCCNC(=O)CC[C@H](NC(=O)CCOCCOCCOCCOCCNC(=O)c2ccc(NN)nc2)C(=O)NCCOCCOCCOCCOCCC(=O)NCCCC[C@@H]2NC(=O)[C@@H](Cc3ccccc3)NC(=O)[C@H](CC(=O)O)NC(=O)CNC(=O)[C@H](CCCNC(=N)N)NC2=O)NC(=O)[C@@H](Cc2ccccc2)NC(=O)[C@H](CC(=O)O)NC(=O)CNC1=O` [^99mTc-3P-RGD2, [^99mTc(HYNIC-3P-RGD2)(tricine)(TPPTS)], metal not drawn] the “stability in serum (radio-HPLC)” value [1] was “stable”, the tissue to tissue ratio at 2 h ([2]; CNE-1 tumor / blood, 120 min p.i., read-out: tumor/blood ratio) was 2.49 ± 0.09 and the tissue to tissue ratio at 2 h ([2]; CNE-1 tumor / muscle, 120 min p.i., read-out: tumor/muscle ratio) was 1.86 ± 0.07. The tissue uptake at 1 h ([2]; CNE-1 tumor, 60 min p.i., tail vein 0.55–0.74 MBq, γ-counter, %ID/g, 3 mice per time point) was 2.74 ± 0.51 %ID/g, the tissue uptake at 2 h ([2]; CNE-1 tumor, 120 min p.i., tail vein 0.55–0.74 MBq, γ-counter, %ID/g, 3 mice per time point) was 1.69 ± 0.18 %ID/g and the “uptake in blood and muscle” value (HEP-2 tumor; 60 min p.i.) was “low”. For the same compound, the route of excretion (HEP-2 tumor) was “excreted predominantly via the renal route”, the kidney uptake (HEP-2 tumor; selected organs) was “highest in the selected organs” and the tissue to tissue ratio at 2 h ([3]; HEP-2 tumor / blood, 120 min p.i., read-out: tumor/blood ratio) was 6.37 ± 0.68. For the same compound, the tissue to tissue ratio at 2 h ([3]; HEP-2 tumor / muscle, 120 min p.i., read-out: tumor/muscle ratio) was 4.44 ± 0.42, the tissue uptake at 1 h ([3]; HEP-2 tumor, 60 min p.i., tail vein 0.55–0.74 MBq, γ-counter, %ID/g, 3 mice per time point) was 6.25 ± 0.22 %ID/g and the tissue uptake at 2 h ([3]; HEP-2 tumor, 120 min p.i., tail vein 0.55–0.74 MBq, γ-counter, %ID/g, 3 mice per time point) was 4.56 ± 0.67 %ID/g.
